Experimental data published in article PMC9234707.

B1: activin B (ligand)
chain: GLECDGRTNLCCRQQFFIDFRLIGWNDWIIAPTGYYGNYCEGSCPAYLAGVPGSASSFHTAVVNQYRMRGLNPGTVNSCCIPTKLSTMSMLYFDDEYNIVKRDVPNMIVEECGCA
B2: BMP15 (ligand)
chain: QADGISAEVTASSSKHSGPENNQCSLHPFQISFRQLGWDHWIIAPPFYTPNYCKGTCLRVLRDGLNSPNHAIIQNLINQLVDQSVPRPSCVPYKYVPISVLMIEANGSILYKEYEGMIAESCTCR
B3: GDF11 (ligand)
chain: NLGLDCDEHSSESRCCRYPLTVDFEAFGWDWIIAPKRYKANYCSGQCEYMFMQKYPHTHLVQQANPRGSAGPCCTPTKMSPINMLYFNDKQQIIYGKIPGMVVDRCGCS
B4: Nodal (ligand)
chain: HHLPDRSQLCRKVKFQVDFNLIGWGSWIIYPKQYNAYRCEGECPNPVGEEFHPTNHAYIQSLLKRYQPHRVPSTCCAPVKTKPLSMLYVDNGRVLLDHHKDMIVEECGCL
B5: BMP10 (ligand)
chain: NAKGNYCKRTPLYIDFKEIGWDSWIIAPPGYEAYECRGVCNYPLAEHLTPTKHAIIQALVHLKNSQKASKACCVPTKLEPISILYLDKGVVTYKFKYEGMAVSECGCR

Columns and labels:
ACVR2A GBD-Fc (human) [1] = molecular target: ACVR2A GBD-Fc (human) (UniProt P27037); test: SPR; BIAcore 3000; receptor-Fc captured on immobilised anti-human IgG (Fc), CM5 chip; titration, global fit of 2.5, 5.0, 10.0, 20.0 and 40.0 nM GF injections; 25 °C; HBS/EPS (0.01 M Hepes, 0.5 M NaCl, 3 mM EDTA, 0.005% Tween 20, pH 7.4) with 0.1% bovine serum albumin; 50 μl/min; 1:1 binding model, KD = kd/ka
ACVR2A GBD-Fc (human), sequence (P27037 whole entry): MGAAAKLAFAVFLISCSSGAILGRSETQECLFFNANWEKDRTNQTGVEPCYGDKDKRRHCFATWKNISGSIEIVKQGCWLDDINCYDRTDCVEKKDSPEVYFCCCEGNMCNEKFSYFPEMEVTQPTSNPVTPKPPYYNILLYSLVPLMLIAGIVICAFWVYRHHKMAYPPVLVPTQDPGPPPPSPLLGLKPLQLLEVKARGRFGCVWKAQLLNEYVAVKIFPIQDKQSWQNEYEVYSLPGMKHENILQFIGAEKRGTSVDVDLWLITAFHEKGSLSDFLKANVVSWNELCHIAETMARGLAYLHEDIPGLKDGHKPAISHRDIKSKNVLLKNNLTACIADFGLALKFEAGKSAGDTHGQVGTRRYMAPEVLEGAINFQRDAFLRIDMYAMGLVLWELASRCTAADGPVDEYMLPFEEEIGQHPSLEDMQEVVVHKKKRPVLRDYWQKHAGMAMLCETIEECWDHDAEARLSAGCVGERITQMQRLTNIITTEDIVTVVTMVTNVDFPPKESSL

[2] = molecular target: BMPR2 GBD-Fc (WT) (human) (UniProt Q13873); test: as above
BMPR2 GBD-Fc (WT) (human), sequence (Q13873 whole entry): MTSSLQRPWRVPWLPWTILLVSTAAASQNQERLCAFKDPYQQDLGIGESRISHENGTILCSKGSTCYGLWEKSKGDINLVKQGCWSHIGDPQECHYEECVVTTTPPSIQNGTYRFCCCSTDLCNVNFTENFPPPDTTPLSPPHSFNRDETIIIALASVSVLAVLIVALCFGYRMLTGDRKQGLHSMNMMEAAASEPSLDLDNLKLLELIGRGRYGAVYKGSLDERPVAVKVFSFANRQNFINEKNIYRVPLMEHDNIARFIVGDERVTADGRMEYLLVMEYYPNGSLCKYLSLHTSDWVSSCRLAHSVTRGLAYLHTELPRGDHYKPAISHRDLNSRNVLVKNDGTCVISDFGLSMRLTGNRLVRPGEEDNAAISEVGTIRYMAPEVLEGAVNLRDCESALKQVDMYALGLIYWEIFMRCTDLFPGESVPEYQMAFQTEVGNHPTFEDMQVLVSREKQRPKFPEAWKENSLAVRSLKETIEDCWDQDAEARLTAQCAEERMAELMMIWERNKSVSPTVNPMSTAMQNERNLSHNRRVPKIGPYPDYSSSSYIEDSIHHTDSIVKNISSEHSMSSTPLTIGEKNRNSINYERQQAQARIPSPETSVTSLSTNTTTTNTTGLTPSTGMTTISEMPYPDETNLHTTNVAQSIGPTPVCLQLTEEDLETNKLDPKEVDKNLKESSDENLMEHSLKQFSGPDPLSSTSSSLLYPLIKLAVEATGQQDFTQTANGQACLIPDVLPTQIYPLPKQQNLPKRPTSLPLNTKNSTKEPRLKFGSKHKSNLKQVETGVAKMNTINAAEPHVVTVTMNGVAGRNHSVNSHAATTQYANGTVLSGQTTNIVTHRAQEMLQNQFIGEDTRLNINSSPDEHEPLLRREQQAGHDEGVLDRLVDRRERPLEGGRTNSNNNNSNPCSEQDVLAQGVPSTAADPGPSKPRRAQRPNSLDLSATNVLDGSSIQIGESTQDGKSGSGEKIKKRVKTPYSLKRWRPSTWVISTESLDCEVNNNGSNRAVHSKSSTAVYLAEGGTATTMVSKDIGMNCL

[3] = molecular target: BMPR2 GBD-Fc (WT) (human) (UniProt Q13873); test: as above; remark: listed apart in the source
[4] = molecular target: BMPR2-Fc variant G47D (human) (UniProt Q13873); test: as above
[5] = molecular target: BMPR2-Fc variant Q42R (human) (UniProt Q13873); test: as above
[6] = molecular target: BMPR2-Fc variant Q92H (human) (UniProt Q13873); test: as above
[7] = molecular target: BMPR2-Fc variant S107P (human) (UniProt Q13873); test: as above
ACVR2A GBD-Fc (human) [8] = molecular target: ACVR2A GBD-Fc (human) (UniProt P27037); test: SPR; BIAcore 3000; receptor-Fc (about 500 RU BMPR2-Fc WT or variants, 150 RU ACVR2A-Fc) captured on immobilised anti-human IgG (Fc), CM5 chip; single injections of 80 nM GF, single curve fits, averages of two independent injections; 25 °C; HBS/EPS (0.01 M Hepes, 0.5 M NaCl, 3 mM EDTA, 0.005% Tween 20, pH 7.4) with 0.1% bovine serum albumin; 50 μl/min; 1:1 binding model, KD = kd/ka
[9] = molecular target: BMPR2 GBD-Fc (WT) (human) (UniProt Q13873); test: as above
[10] = molecular target: BMPR2 GBD-Fc (WT) (human) (UniProt Q13873); test: as above; remark: listed apart in the source
[11] = molecular target: BMPR2-Fc variant G47D (human) (UniProt Q13873); test: as above
[12] = molecular target: BMPR2-Fc variant Q42R (human) (UniProt Q13873); test: as above
[13] = molecular target: BMPR2-Fc variant Q92H (human) (UniProt Q13873); test: as above
[14] = molecular target: BMPR2-Fc variant S107P (human) (UniProt Q13873); test: as above

Binder | Kd [2] [nM] | koff [2] [s⁻¹] | kon [2] [M⁻¹ s⁻¹] | Kd [4] [nM] | koff [4] [s⁻¹] | kon [4] [M⁻¹ s⁻¹] | Kd [5] [nM] | koff [5] [s⁻¹] | kon [5] [M⁻¹ s⁻¹] | Kd [6] [nM] | koff [6] [s⁻¹] | kon [6] [M⁻¹ s⁻¹] | Kd [7] [nM] | koff [7] [s⁻¹] | Kd (ACVR2A GBD-Fc (human) [8]) [nM] | koff (ACVR2A GBD-Fc (human) [8]) [s⁻¹] | kon (ACVR2A GBD-Fc (human) [8]) [M⁻¹ s⁻¹] | Kd [9] [nM] | koff [9] [s⁻¹] | kon [9] [M⁻¹ s⁻¹] | other results
B1 | 0.71 | 0.00062 | 880000 | 1.3 | 0.00058 | 430000 | 1.4 | 0.00082 | 580000 | 1.1 | 0.00044 | 400000 | 0.28 | 0.00019 | 0.053 | 7.4e-05 | 1.4e+06 | 2.3 | 0.0018 | 790000 | Kd (ACVR2A GBD-Fc (human) [1]): 0.0016 nM; koff (ACVR2A GBD-Fc (human) [1]): 9.7e-06 s⁻¹; kon (ACVR2A GBD-Fc (human) [1]): 6.1e+06 M⁻¹ s⁻¹; koff [3]: 0.00082 s⁻¹; kon [7]: 670000 M⁻¹ s⁻¹; Kd [10]: 4.1 nM; kon [10]: 470000 M⁻¹ s⁻¹; Kd [11]: 2.9 nM; koff [11]: 0.0013 s⁻¹; kon [11]: 440000 M⁻¹ s⁻¹; Kd [12]: 5 nM; koff [12]: 0.0021 s⁻¹; kon [12]: 420000 M⁻¹ s⁻¹; Kd [13]: 1.8 nM; koff [13]: 0.00072 s⁻¹; kon [13]: 400000 M⁻¹ s⁻¹; Kd [14]: 2.6 nM; koff [14]: 0.0015 s⁻¹; kon [14]: 610000 M⁻¹ s⁻¹
B2 |  |  |  |  |  |  |  |  |  |  |  |  |  |  |  |  |  | 6.3 | 0.0021 | 330000 | 
B3 |  |  |  |  |  |  |  |  |  |  |  |  |  |  | 0.052 | 0.00018 | 3.5e+06 |  |  |  | 
B4 |  |  |  |  |  |  |  |  |  |  |  |  |  |  |  |  |  | 3.2 | 0.00014 | 42000 | 
B5 | 2.4 | 5.5e-05 | 23000 | 0.02 | 2.8e-06 | 140000 | 2.3 | 7.9e-05 | 34000 | 0.32 | 7.8e-05 | 250000 | 1 | 1.9e-05 | 1 | 0.00035 | 360000 | 2.1 | 0.00019 | 91000 | kon [7]: 19000 M⁻¹ s⁻¹; Kd [10]: 1.8 nM; koff [10]: 0.00017 s⁻¹; kon [10]: 94000 M⁻¹ s⁻¹; Kd [11]: 0.58 nM; koff [11]: 3.8e-05 s⁻¹; kon [11]: 65000 M⁻¹ s⁻¹; Kd [12]: 2.5 nM; koff [12]: 0.00021 s⁻¹; kon [12]: 83000 M⁻¹ s⁻¹; Kd [13]: 1.8 nM; koff [13]: 0.00015 s⁻¹; kon [13]: 90000 M⁻¹ s⁻¹; Kd [14]: 0.86 nM; koff [14]: 0.00018 s⁻¹; kon [14]: 210000 M⁻¹ s⁻¹
